Our source for the Ki values is patent publication US20180273587A1 (AILERON THERAPEUTICS, published 2018).

Positions of bridges follow the written chain, without caps; N, C: chain ends. Non-standard residues stand in square brackets, D forms with d. Phe(4-CF3) = N[C@@H](Cc1ccc(C(F)(F)F)cc1)C(=O)O; Phe(4-tBu) = CC(C)(C)c1ccc(C[C@H](N)C(=O)O)cc1; R8 = C=CCCCCCC[C@@](C)(N)C(=O)O; S5 = C=CCCC[C@](C)(N)C(=O)O; Abu = CC[C@H](N)C(=O)O

Holding throughout (assay): Ki; method not stated; unit not printed (nM per Table 6)
The target of one assay is T1, MCL-1 (UniProt Q07820 172-327, limits assumed).
T1 construct: Target of the Ki columns; also called Myeloid cell leukemia 1
T1 sequence (Q07820 172-327 limits assumed): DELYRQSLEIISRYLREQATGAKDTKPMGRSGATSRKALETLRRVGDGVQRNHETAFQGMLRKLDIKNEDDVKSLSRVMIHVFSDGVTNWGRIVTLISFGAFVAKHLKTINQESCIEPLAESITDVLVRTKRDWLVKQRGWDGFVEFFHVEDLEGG

The target in a further assay is T2, BCL-XL (UniProt Q07817 1-209).
T2 construct: Target of the Ki columns
T2 sequence (Q07817 1-209): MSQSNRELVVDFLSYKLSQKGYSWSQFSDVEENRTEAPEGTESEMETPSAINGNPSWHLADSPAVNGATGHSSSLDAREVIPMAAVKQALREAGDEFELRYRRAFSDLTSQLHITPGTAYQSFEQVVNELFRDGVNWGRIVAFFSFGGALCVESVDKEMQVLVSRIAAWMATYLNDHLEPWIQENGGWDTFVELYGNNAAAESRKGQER

For a further assay, the target named is T3, BCL-2 (UniProt P10415 1-217, limits assumed).
T3 construct: Target of the Ki columns
T3 sequence (P10415 1-217 limits assumed): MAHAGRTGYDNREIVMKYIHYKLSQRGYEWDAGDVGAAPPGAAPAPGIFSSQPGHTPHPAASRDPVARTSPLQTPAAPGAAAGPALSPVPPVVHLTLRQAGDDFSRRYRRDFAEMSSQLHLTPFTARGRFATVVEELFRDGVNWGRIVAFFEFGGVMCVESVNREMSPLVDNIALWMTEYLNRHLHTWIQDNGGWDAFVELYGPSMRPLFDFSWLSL

B1: SEQ ID NO: 1744 (peptide)
peptide: Ac-IWIAQALR[R8]IGDA[Phe(4-CF3)]N[S5]YYA-NH2
modifications: staple 9-16
SMILES: CC[C@H](C)[C@H](NC(C)=O)C(=O)N[C@@H](Cc1c[nH]c2ccccc12)C(=O)N[C@H](C(=O)N[C@@H](C)C(=O)N[C@@H](CCC(N)=O)C(=O)N[C@@H](C)C(=O)N[C@@H](CC(C)C)C(=O)N[C@@H](CCCNC(=N)N)C(=O)N[C@]1(C)CCCCCCC=CCCC[C@@](C)(C(=O)N[C@@H](Cc2ccc(O)cc2)C(=O)N[C@@H](Cc2ccc(O)cc2)C(=O)N[C@@H](C)C(N)=O)NC(=O)[C@H](CC(N)=O)NC(=O)[C@H](Cc2ccc(C(F)(F)F)cc2)NC(=O)[C@H](C)NC(=O)[C@H](CC(=O)O)NC(=O)CNC(=O)[C@H]([C@@H](C)CC)NC1=O)[C@@H](C)CC
What is called Ki is a measure of affinity in units of concentration, obtained from inhibition or displacement. Read a low Ki as tighter binding. As for B1, the inhibition constant (Ki) in the assay with MCL-1 came out at 8.2 nM; with BCL-XL, 107 nM; with BCL-2, 104 nM.

B2: SEQ ID NO: 1745 (peptide)
peptide: Ac-IWIAQALR[R8]IGDA[Phe(4-tBu)]N[S5]YYA-NH2
modifications: staple 9-16
SMILES: CC[C@H](C)[C@H](NC(C)=O)C(=O)N[C@@H](Cc1c[nH]c2ccccc12)C(=O)N[C@H](C(=O)N[C@@H](C)C(=O)N[C@@H](CCC(N)=O)C(=O)N[C@@H](C)C(=O)N[C@@H](CC(C)C)C(=O)N[C@@H](CCCNC(=N)N)C(=O)N[C@]1(C)CCCCCCC=CCCC[C@@](C)(C(=O)N[C@@H](Cc2ccc(O)cc2)C(=O)N[C@@H](Cc2ccc(O)cc2)C(=O)N[C@@H](C)C(N)=O)NC(=O)[C@H](CC(N)=O)NC(=O)[C@H](Cc2ccc(C(C)(C)C)cc2)NC(=O)[C@H](C)NC(=O)[C@H](CC(=O)O)NC(=O)CNC(=O)[C@H]([C@@H](C)CC)NC1=O)[C@@H](C)CC
Take B2: the inhibitory constant (Ki) was determined as 21.2 nM in the assay with MCL-1, 154 nM with BCL-XL and 158 nM in the assay with BCL-2.

As for IWIAQALRAIGDAXNAYYA (N-terminal Ac; $r8 at 9 and $ at 16 (crosslinked); Bip at 14; C-terminal NH2) [SEQ ID NO: 1747], the results for the Ki with MCL-1, with BCL-XL and with BCL-2 were 6.5 nM, 100 nM and 114 nM, respectively.

B3: SEQ ID NO: 1741 (peptide)
peptide: Ac-IWIAAALR[R8]IGDAGN[S5]YYA-NH2
modifications: staple 9-16
SMILES: CC[C@H](C)[C@H](NC(C)=O)C(=O)N[C@@H](Cc1c[nH]c2ccccc12)C(=O)N[C@H](C(=O)N[C@@H](C)C(=O)N[C@@H](C)C(=O)N[C@@H](C)C(=O)N[C@@H](CC(C)C)C(=O)N[C@@H](CCCNC(=N)N)C(=O)N[C@]1(C)CCCCCCC=CCCC[C@@](C)(C(=O)N[C@@H](Cc2ccc(O)cc2)C(=O)N[C@@H](Cc2ccc(O)cc2)C(=O)N[C@@H](C)C(N)=O)NC(=O)[C@H](CC(N)=O)NC(=O)CNC(=O)[C@H](C)NC(=O)[C@H](CC(=O)O)NC(=O)CNC(=O)[C@H]([C@@H](C)CC)NC1=O)[C@@H](C)CC
Take B3: the figures for the inhibition constant (Ki) with MCL-1, with BCL-XL and with BCL-2 were 29.7 nM, 171 nM and 145 nM, respectively.

B4: SEQ ID NO: 1738 (peptide)
peptide: Ac-IWIAAALR[R8]I[Abu]DAFN[S5]YYA-NH2
modifications: staple 9-16
SMILES: CC[C@@H]1NC(=O)[C@H]([C@@H](C)CC)NC(=O)[C@](C)(NC(=O)[C@H](CCCNC(=N)N)NC(=O)[C@H](CC(C)C)NC(=O)[C@H](C)NC(=O)[C@H](C)NC(=O)[C@H](C)NC(=O)[C@@H](NC(=O)[C@H](Cc2c[nH]c3ccccc23)NC(=O)[C@@H](NC(C)=O)[C@@H](C)CC)[C@@H](C)CC)CCCCCCC=CCCC[C@@](C)(C(=O)N[C@@H](Cc2ccc(O)cc2)C(=O)N[C@@H](Cc2ccc(O)cc2)C(=O)N[C@@H](C)C(N)=O)NC(=O)[C@H](CC(N)=O)NC(=O)[C@H](Cc2ccccc2)NC(=O)[C@H](C)NC(=O)[C@H](CC(=O)O)NC1=O
Consider B4, for which the results for the Ki in the assay with MCL-1, with BCL-XL and with BCL-2 were 106 nM, 112 nM and 131 nM, respectively.

B5: SEQ ID NO: 1739 (peptide)
peptide: Ac-IWIAAALR[R8]IVDAFN[S5]YYA-NH2
modifications: staple 9-16
SMILES: CC[C@H](C)[C@H](NC(C)=O)C(=O)N[C@@H](Cc1c[nH]c2ccccc12)C(=O)N[C@H](C(=O)N[C@@H](C)C(=O)N[C@@H](C)C(=O)N[C@@H](C)C(=O)N[C@@H](CC(C)C)C(=O)N[C@@H](CCCNC(=N)N)C(=O)N[C@]1(C)CCCCCCC=CCCC[C@@](C)(C(=O)N[C@@H](Cc2ccc(O)cc2)C(=O)N[C@@H](Cc2ccc(O)cc2)C(=O)N[C@@H](C)C(N)=O)NC(=O)[C@H](CC(N)=O)NC(=O)[C@H](Cc2ccccc2)NC(=O)[C@H](C)NC(=O)[C@H](CC(=O)O)NC(=O)[C@H](C(C)C)NC(=O)[C@H]([C@@H](C)CC)NC1=O)[C@@H](C)CC
For B5, the inhibition constant (Ki) amounted to 104 nM in the assay with MCL-1, 140 nM with BCL-XL and 120 nM with BCL-2.

B6: SEQ ID NO: 1740 (peptide)
peptide: Ac-IWIAAALR[R8]IGEAFN[S5]YYA-NH2
modifications: staple 9-16
SMILES: CC[C@H](C)[C@H](NC(C)=O)C(=O)N[C@@H](Cc1c[nH]c2ccccc12)C(=O)N[C@H](C(=O)N[C@@H](C)C(=O)N[C@@H](C)C(=O)N[C@@H](C)C(=O)N[C@@H](CC(C)C)C(=O)N[C@@H](CCCNC(=N)N)C(=O)N[C@]1(C)CCCCCCC=CCCC[C@@](C)(C(=O)N[C@@H](Cc2ccc(O)cc2)C(=O)N[C@@H](Cc2ccc(O)cc2)C(=O)N[C@@H](C)C(N)=O)NC(=O)[C@H](CC(N)=O)NC(=O)[C@H](Cc2ccccc2)NC(=O)[C@H](C)NC(=O)[C@H](CCC(=O)O)NC(=O)CNC(=O)[C@H]([C@@H](C)CC)NC1=O)[C@@H](C)CC
Regarding B6, the inhibitory constant (Ki) with MCL-1 worked out at 63.6 nM; in the assay with BCL-XL, 135 nM; with BCL-2, 142 nM.

B7: SEQ ID NO: 1737 (peptide)
peptide: Ac-IWIAAALK[R8]IGDAFN[S5]YYA-NH2
modifications: staple 9-16
SMILES: CC[C@H](C)[C@H](NC(C)=O)C(=O)N[C@@H](Cc1c[nH]c2ccccc12)C(=O)N[C@H](C(=O)N[C@@H](C)C(=O)N[C@@H](C)C(=O)N[C@@H](C)C(=O)N[C@@H](CC(C)C)C(=O)N[C@@H](CCCCN)C(=O)N[C@]1(C)CCCCCCC=CCCC[C@@](C)(C(=O)N[C@@H](Cc2ccc(O)cc2)C(=O)N[C@@H](Cc2ccc(O)cc2)C(=O)N[C@@H](C)C(N)=O)NC(=O)[C@H](CC(N)=O)NC(=O)[C@H](Cc2ccccc2)NC(=O)[C@H](C)NC(=O)[C@H](CC(=O)O)NC(=O)CNC(=O)[C@H]([C@@H](C)CC)NC1=O)[C@@H](C)CC
With B7, the values for the Ki with MCL-1, with BCL-XL and with BCL-2 were 23.2 nM, 11.7 nM and 25.6 nM, respectively.

B8: SEQ ID NO: 1748 (peptide)
peptide: Ac-IWIAAALR[R8]IGDAFD[S5]YYA-NH2
modifications: staple 9-16
SMILES: CC[C@H](C)[C@H](NC(C)=O)C(=O)N[C@@H](Cc1c[nH]c2ccccc12)C(=O)N[C@H](C(=O)N[C@@H](C)C(=O)N[C@@H](C)C(=O)N[C@@H](C)C(=O)N[C@@H](CC(C)C)C(=O)N[C@@H](CCCNC(=N)N)C(=O)N[C@]1(C)CCCCCCC=CCCC[C@@](C)(C(=O)N[C@@H](Cc2ccc(O)cc2)C(=O)N[C@@H](Cc2ccc(O)cc2)C(=O)N[C@@H](C)C(N)=O)NC(=O)[C@H](CC(=O)O)NC(=O)[C@H](Cc2ccccc2)NC(=O)[C@H](C)NC(=O)[C@H](CC(=O)O)NC(=O)CNC(=O)[C@H]([C@@H](C)CC)NC1=O)[C@@H](C)CC
As for B8, the Ki was determined as 1.5 nM in the assay with MCL-1, 25.9 nM with BCL-XL and 35.3 nM with BCL-2.
